Reference: paper PMC10309188
pKd: −log10 of the molar value.

What was measured:
Experiment in all cases: SPR
[1] = biological target: wildtype MR1 refolded with 6-FP, biotinylated (SPR) (UniProt Q95460)
[2] = biological target: MR1 E76Q E149Q refolded with 6-FP, biotinylated (SPR) (UniProt Q95460)
[3] = biological target: MR1 E76Q E149Q refolded with 5-FSA, biotinylated (SPR) (UniProt Q95460)
[4] = biological target: wildtype MR1 refolded with 5-F-SA, biotinylated (SPR) (UniProt Q95460)

Measured: pKd

AF-7 TCR
< 3.82: [1] | [2] | [3] | [4]
